Results on two substances are retold here after patent US6159704.

Assay [1] has as its target PP2Ac of COS-1 cells (endogenous PP2A catalytic subunit / PP2A activity). Description: 12CA5 immunoprecipitation from transfected COS-1 cells, PP2A activity on 32P-LRRASVA.
For assay [2] the target is unchanged. Description: 12CA5 immunoprecipitation from transfected COS-1 cells, PP2A activity in the precipitate.
Assay [3] concerns the target 32P-labeled synthetic peptide LRRASVA (Kemptide Val^6, Ala^7) (Artificial Sequence).

In assay [1], “HA-tagged human PR65α expressed in COS-1 cells (from UniProt P30153)” gave a % immunoprecipitated (of PP2A activity) of 3.7% and a PP2A activity in immunoprecipitates (mU) of 17 mU. In addition, in assay [2], the fold PP2A activity against eRF1 immunoprecipitates worked out at 10 fold.

Take “PP2Ac of COS-1 cells (endogenous PP2A catalytic subunit / PP2A activity) (enzyme)”: the PP2A activity with 32P-labeled synthetic peptide (LRRASVA) as substrate, with and without 10 nM okadaic acid in assay [3] turned out to be 2.4 U/mg.
